Results reported in US10293018B2, “Fusion protein for treating rejection reaction in transplantation” (Immunwork Inc., priority 2015, dated 2019).

Columns and labels:
[1] = system: mTOR/p70S6K signaling pathway; experiment: Western blot analysis of mTOR/p70S6K signaling pathway in Jurkat T cells; assay type: cell-based, human; settings: 100 nM compound with 10 ng/ml IL2, 24 hours, without changes in total p70S6K, FIG. 20A
Protocol: To examine the biological activities of these compounds, western blot analysis of mTOR/p70S6K signaling pathway and T-cell proliferation assay were performed with human Jurkat T cells. T-cell viability and proliferation were assessed using alamarBlue® cell viability reagent (Invitrogen).
For the western blot analysis of mTOR/p70S6K signaling pathway, briefly, Jurkat T cell were seeded into 6-cm cell culture dish in RPM11640 medium containing 10% fetal bovine serum.
Insoluble material was collected by centrifugation at 14,000×g for 20 minutes at 4° C. The cell lysate samples were separated on 10% SDS-PAGE gels and transferred to a PVDF membrane (Millipore). The membrane blots were blocked in PBS containing 5% BSA for 1 hour at room temperature, and incubated with primary antibodies, anti-phospho-p70S6K antibody (Cell Signaling Technology, Danvers, USA) and anti-p70S6K antibody (Cell Signaling Technology), overnight at 4° C. […] Then the membranes were washed three times with TBST, and immunoreacted bands were detected with ECL™ western blotting detection reagents (Millipore) and exposed on Fujifilm (Tokyo, Japan). Relative quantification of ECL signals on X-ray films were analyzed by using Image J (NIH, Bethesda, Md., USA).

scFv specific for CTLA-4 = experiment: Western blot of recombinant CTLA-4 detected with scFv specific for CTLA-4; assay type: binding; settings: scFv 1 μg/ml; FIG. 14C
Protocol: Recombinant CTLA-4 protein was analyzed and detected using western blotting. Briefly, 50 μl of the purified CTLA-4 protein was electrophoresed on the 12% SDS-PAGE gel (lane 2) and electroblotted over to a PDVF membrane. The protein (CTLA-4)-IgG1Fc-(scFv α HLA-A1) was used as a positive control (lane 1). After blocking with 5% BSA in TBST at room temperature for 1 hour, the diluted scFv specific for CTLA-4 (1 μg/ml) was added and incubated with the membrane overnight at 4° C. with gentle shaking. The membrane was rinsed and washed 3 times with TBST. The diluted HRP-conjugated protein L (1:5000) was added and incubated with the membrane at room temperature for 1 hour, and the rinse and wash cycle was repeated with TBST for 3 times. The membrane was then incubated with HRP substrate solution for 20 minutes before being exposed to the photographic film.

PD1-IgG1.Fc = target: T1, PD1-IgG1.Fc (Homo sapiens, UniProt Q15116); experiment: ELISA of coated recombinant PD-L1 binding PD1-IgG1.Fc; settings: PD-L1 coated at 50 μg/ml, PD1-IgG1.Fc at 50 μg/ml; FIG. 14D
T1 construct: made in house; host or cells: Expi293F
T1 sequence (Q15116 with tags, fused parts or gaps): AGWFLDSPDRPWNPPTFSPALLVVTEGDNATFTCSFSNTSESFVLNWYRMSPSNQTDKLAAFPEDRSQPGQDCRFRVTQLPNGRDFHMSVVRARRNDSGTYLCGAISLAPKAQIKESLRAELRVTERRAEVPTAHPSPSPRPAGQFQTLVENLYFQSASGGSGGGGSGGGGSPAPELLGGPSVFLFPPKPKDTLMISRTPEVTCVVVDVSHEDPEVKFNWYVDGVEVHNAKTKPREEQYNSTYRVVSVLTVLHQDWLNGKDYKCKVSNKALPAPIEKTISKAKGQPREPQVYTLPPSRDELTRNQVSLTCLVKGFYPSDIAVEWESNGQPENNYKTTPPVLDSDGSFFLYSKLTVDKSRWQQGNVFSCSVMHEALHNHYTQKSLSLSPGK
Protocol: Binding activity of recombinant PD-L1 protein was assayed with ELISA using a 96-well plate coated with recombinant PD-L1 protein in 50 μg/ml concentration, 100 μl per well. After the excess PD-L1 was washed off and the solid phase blocked, 100 μl per well of PD1-IgG1.Fc at 50 μg/ml was added. The bound PD1-IgG1.Fc was determined by HRP-conjugated goat anti-human IgG.Fc. 50 μl of TMB substrate was added for color development. The reaction was stopped by 50 μl of 1M HCl. Absorbance at 450 nm was measured with a plate reader. Each bar represents the mean OD450 value of duplicate samples.

human HLA-A2 = target: T2, human HLA-A2 (Homo sapiens, UniProt P04439); experiment: Single colony ELISA of phage-displayed scFvs specific for human HLA-A2; assay type: binding; settings: secreted scFv in supernatant; HLA-A2 0.5 μg per well; FIG. 16B
T2 construct: made in house; host or cells: Expi293F
Protocol: E. coli strain ER2738 infected with single-clonal phages each harboring a selected scFv gene in its phagemid was grown in the mid-log phase in 2YT broth (16 g/l tryptone, 10 g/l yeast extract, 5 g/l NaCl, pH 7.0) with 100 μg/ml ampicillin in deep well at 37° C. with shaking. After the broth reached an OD600 of 1.0, IPTG was added to a final concentration of 1 μg/ml. The plates were incubated at 37° C. overnight under rigorously shaking. Thereafter, the plates were centrifuged at 4,000 g for 15 minutes at 4° C.
For soluble scFv binding test, ELISA was carried out. Briefly, 96-well Maxisorp 96-well plate (Nunc) was coated with human HLA-A2 (0.5 μg/100 μl PBS per well) or two negative control antigens, human heat shock protein 70 (Hsp 70) and RSV-IgG1.Fc fusion protein (prepared by our laboratory), for 18 hours with shaking at 4° C. After being treated with 300 μl of blocking buffer for 1 hour, 100 μl of secreted scFv in the supernatant was mixed with 100 μl of blocking buffer and then added to the coated plate for another 1 hour. Goat anti-E-tag antibody (conjugated with HRP, 1:4000, Cat. No. AB19400, Abcam) was added to the plate for 1 hour. TMB substrate (50 μl per well) was added to the wells and the absorbance at 450 nm was measured after reactions were stopped by adding 1N HCl (50 μl per well).

human HLA-A1 [2] = target: T3, human HLA-A1 (Homo sapiens, UniProt P04439); experiment: ELISA of purified scFv of mAb specific for human HLA-A1; assay type: binding; settings: scFv specific for TNF-α as negative control; FIG. 15C
T3 construct: made in house; host or cells: Expi293F
Protocol: The expression of the constructed gene in Expi293F cells was performed as in preceding Examples. Culture supernatants were harvested and scFv proteins in the media were purified using Protein L affinity chromatography. FIGS. 15A, 15B and 15C show 12% SDS-PAGE, mass spectrometric and ELISA analyses of purified scFv of mAb specific for human HLA-A1. […] The scFv specific for TNF-α was used as a negative control, which was prepared as described in PCT patent application publication No. WO/2016112870.

human HLA-A1 [3] = target: T3, human HLA-A1; experiment: ELISA of tetrazine-conjugated scFv specific for human HLA-A1; assay type: binding; settings: unmodified scFv as positive control; FIG. 17B
Text: The purity of tetrazine-conjugated scFv specific for human HLA-A1 was identified through Coomassie blue staining of 12% SDS-PAGE. FIGS. 17A and 17B show, respectively, the mass spectrometric and ELISA analysis of tetrazine-conjugated scFv specific for human HLA-A1, in which unmodified scFv specific for human HLA-A1 was used as a positive control.

## COC1CC2CCC(C)C(O)(O2)C(=O)C(=O)N2CCCCC2C(=O)OC(C(C)CC2CCC(OC(=O)CN)C(OC)C2)CC(=O)C(C)C=C(C)C(O)C(OC)C(=O)C(C)CC(C)C=CC=CC=C1C (stereo not shown) [sirolimus-Gly]
[1]
  phosphorylated level of p70S6K: decreased

## COC1CC2CCC(C)C(O)(O2)C(=O)C(=O)N2CCCCC2C(=O)OC(C(C)CC2CCC(OC(=O)CNC(=O)CN)C(OC)C2)CC(=O)C(C)C=C(C)C(O)C(OC)C(=O)C(C)CC(C)C=CC=CC=C1C (stereo not shown) [sirolimus-diGly]
[1]
  phosphorylated level of p70S6K: decreased

## recombinant human CTLA-4: recombinant human CTLA-4, SEQ ID NO: 30, with GGGGSGGGGS linker and terminal cysteine at the C-terminus
scFv specific for CTLA-4
  binding by the scFv specific for CTLA-4 (western blot): specifically bound

## recombinant human PD-L1: recombinant human PD-L1, SEQ ID NO: 31, with GGGGSGGGGS linker and terminal cysteine at the C-terminus
PD1-IgG1.Fc
  binding to recombinant PD1-IgG1.Fc (ELISA): specifically bound

B1: 3E10: phage-displayed scFv clone that binds to human HLA-A2, SEQ ID NO: 34 (protein)
scFv: DIQMTQSPSSLSASVGDRVTITCRASQDVFFFVAWYQQKPGKAPKLLIYGPPGLYSGVPSRFSGSGSGTDFTLTISSLQPEDFATYYCQQYFSFPITFGQGTKVEIKRGGGGSIEGRSGGGGSEVQLVESGGGLVQPGGSLRLSCAASGFTISNGGIHWVRQAPGKGLEWVASIWPSGGYTSYADSVKGRFTISADTSKNTAYLQMNSLRAEDTAVYYCARFGVNYHGIMDYWGQGTLVTVSS
modifications: phage-displayed scFv specific for HLA-A2, 3E10
Human HLA-A2
  OD450 of binding to human HLA-A2: 1.3

B2: scFv of mAb specific for human HLA-A1: scFv with VL and VH from monoclonal antibody 4-35-7, SEQ ID NO: 32 (protein)
scFv: DIQMTQSPSTLSASVGDRVTITCRASQSISNWLAWYQQKPGKAPNLLIYKASSLESGVPSRFSGSGSGTEFTLTISSLQPDDFATYYCQQYHDYSVTFGAGTKVEIKRGGGGSGGGGSGGGGSEVQLLESGGGLVQPGGSQRLSCVASGVPFSNYAMNWVRQAPGKGLEWVSSISGGGDRTFYADSVKGRFTISRDNSKNTLYLQMNSLGAGDTAVYYCAKTYYDFWSGYSRHLNSWGQGSLVTVSSGGGGSGGGGSC
modifications: anti-HLA-A1 4-35-7 scFv
Human HLA-A1 [2]
  binding to human HLA-A1 (ELISA): bound specifically

B3: tetrazine-conjugated scFv specific for human HLA-A1: scFv specific for human HLA-A1 (SEQ ID NO: 32) conjugated at C-terminal cysteine with Mal-PEG4-tetrazine (conjugate)
scFv: DIQMTQSPSTLSASVGDRVTITCRASQSISNWLAWYQQKPGKAPNLLIYKASSLESGVPSRFSGSGSGTEFTLTISSLQPDDFATYYCQQYHDYSVTFGAGTKVEIKRGGGGSGGGGSGGGGSEVQLLESGGGLVQPGGSQRLSCVASGVPFSNYAMNWVRQAPGKGLEWVSSISGGGDRTFYADSVKGRFTISRDNSKNTLYLQMNSLGAGDTAVYYCAKTYYDFWSGYSRHLNSWGQGSLVTVSSGGGGSGGGGSC
modifications: Mal-PEG4-tetrazine at C-terminal cysteine; anti-HLA-A1 4-35-7 scFv
Human HLA-A1 [3]
  binding to recombinant HLA-A1 (ELISA): bound to recombinant HLA-A1
